This assay has as its target T1, mouse LAG-3 ECD (mouse, UniProt Q61790 24-442).
T1 sequence: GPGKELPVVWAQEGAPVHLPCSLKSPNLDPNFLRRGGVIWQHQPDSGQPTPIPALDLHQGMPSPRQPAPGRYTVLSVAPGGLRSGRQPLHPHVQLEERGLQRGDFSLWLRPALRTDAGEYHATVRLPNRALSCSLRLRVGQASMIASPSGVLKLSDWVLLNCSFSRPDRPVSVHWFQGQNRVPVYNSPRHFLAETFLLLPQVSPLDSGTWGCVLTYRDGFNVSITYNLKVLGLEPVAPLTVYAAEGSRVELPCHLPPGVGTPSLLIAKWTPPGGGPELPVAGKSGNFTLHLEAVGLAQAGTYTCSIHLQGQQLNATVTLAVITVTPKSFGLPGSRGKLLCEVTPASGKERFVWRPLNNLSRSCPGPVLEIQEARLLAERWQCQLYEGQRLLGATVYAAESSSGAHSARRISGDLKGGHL
The assay can be described thus: SPR, Fab over captured LAG-3 ECD.

A word on the Kd: it is the equilibrium constant for the complex coming apart. One may read the koff as the first-order rate constant of dissociation. As a reminder, the kon is a measure of how fast the partners come together.

Experimental: Antigens were purified using standard procedures and captured onto an G-a-hu-IgG Fc SensEye® (Ssens BV, The Netherlands) for 15 minutes using a Continuous Flow Microspotter (CFM, Wasatch Microfluidics, Salt Lake City, US). After spotting, the SensEye® was positioned in the IBIS MX96 biosensor and remaining capture sites blocked. […] Fab association was performed for 15 minutes and antigen dissociation was performed for 15 minutes. The recorded binding responses were fitted to a simple Langmuir 1:1 binding model with Scrubber 2 software for calculation of the on-rate (kon or ka), off-rate (koff or kd) and affinity (KL) constants.

B1: Fab fragment of antibody 15572 (Fab, V domains shown, not shown: a dimerising Fc or GST)
VH: QLQLQESGPGLVKPSETLSLTCTVSGDSISSSSYYWGWIRQPPGKGLEWIGSIFYSGNTYYNPSLKSRVTISVDTSKNQFSLKLSSVTAADTAVYYCAREDDFLTDYYGAFDIWGQGTMVTVSS
VL: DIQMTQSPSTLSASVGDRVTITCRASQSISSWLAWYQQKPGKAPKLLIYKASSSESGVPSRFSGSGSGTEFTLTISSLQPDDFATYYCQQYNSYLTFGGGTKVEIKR
notes: monomeric Fab made by GingisKHAN digestion of the IgG1
In the case of B1, the binding result is given as “no binding (tested: 1000 nM)”.

B2: Fab fragment of antibody 15532 (Fab, V domains shown, not shown: a dimerising Fc or GST)
VH: QVQLQQWGAGLLRPSETLSLTCAVYGESFSGYYWNWIRQPPGKGLEWIGEINHSGSTNYNPSLKSRVTISVDTSKTQFSLKLSSVTAADTAVYYCARGWDLLDWNDYWNEYWGQGTLVTVSS
VL: EIVLTQSPATLSLSPGERATLSCRASQSVSSYLAWYQQKPGQAPRLLIYDASNRATGIPARFSGSGSGTDFTLTISSLEPEDFAVYYCQQRSNWPLTFGGGTKVEIKR
notes: as for B1
Consider B2, for which the binding result is recorded as “no binding (tested: 1000 nM)”.

B3: Fab fragment of antibody 15431 (Fab, V domains shown, not shown: a dimerising Fc or GST)
VH: QVQLQQSGPGLVKPSQTLSLTCAISGDSVSSNSAAWNWIRQSPSRGLEWLGRTYYRSKWYNDYAVSVKSRITINPDTSKNQFSLQLNSVTPEDTAVYYCARDDDWNDFDYWGQGTLVTVSS
VL: B2 VL
notes: as for B1
On to B3, for which the binding result is “no binding (tested: 1000 nM)”.

B4: Fab fragment of antibody 15011 (Fab, V domains shown, not shown: a dimerising Fc or GST)
VH: EVQLLESGGGLVQPGGSLRLSCAASGFDFRSYAMMWVRQAPGKGLEWVGGINGEVGGSNTYYAPAVKGRATISRDNSKNTLYLQMNSLRAEDTAVYYCVKGAGACGICNDDIDAWGQGTLVTVSS
VL: SYELTQDPAVSVALGQTVRITCSGAGSYAGSYYYGWHQQKPGQAPVTVIYDNDKRPSNIPDRFSGSSSGNTASLTITGAQAEDEADYYCGSTNDNDDGGLFGSGTKVTVLG
notes: as for B1
Take B4: the affinity, expressed as Kd, was 33 nM; the koff worked out at 0.0023 s⁻¹; the kon was 72000 M⁻¹ s⁻¹.

For the origin of these results see US20220363757A1 (SYMPHOGEN A S, published 2022).
